Measurements taken from the supplement of paper PMC9170038.

System: K4 kissing-loop RNA reporter
Test: apparent KD of K4 kissing-loop reporter; higher = weaker reporter binding
Details: Eterna round: R107
Method: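 RNA-MaP round R107: designed RNA switches with theophylline, tryptophan, arginine or FMN aptamers are transcribed on-chip within common flanks. They are titrated with a labelled K4 kissing-loop RNA reporter in RNA-MaP buffer (100 mM Tris pH 7.5, 80 mM KCl, 4 mM MgCl2), without ligand or with the indicated ligand. Median apparent KD per design.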

[1] = input ligand: theophylline 20 uM
[2] = input ligand: tryptophan 2.4 mM
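Also: bound reporter read as fluorescence of individual clusters on recovered sequencing chips by microscopy, with normalized cluster intensities fitted with a binding model.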

Row | Sequence | apparent KD of K4 kissing-loop reporter (input ligand: FMN 200 uM) [µM] | apparent KD of K4 kissing-loop reporter (input ligand: arginine 13.2 mM) [µM] | apparent KD of K4 kissing-loop reporter (input ligand: none) [µM] | apparent KD of K4 kissing-loop reporter [1] [µM] | apparent KD of K4 kissing-loop reporter [2] [µM]
1 | AACCACUCGUUACAUCACUAUCGAGUGGAACGAGGACCGGUACGGCCGCCACUCGAUUAGAUGCAGUGAUGUUGCAUCUUAGAAU [KL-SSTryp-A (BrourdMod)3 #dotplot2 strengthened] | 0.195 | 0.163 | 0.165 | 0.176 | 0.133
2 | AACCACUCGUUACAUCACUAUCGAGUGGAACGAGGACCGGUACGGCCGCCACUCGGUAACAAGCAGUGAUGUUGCUUGUAAGAAU [KL-SSTryp-A (BrourdMod)2 #dotplot2 strengthened] | 0.298 | 0.252 | 0.307 | 0.312 | 0.164
3 | AACCGAGGUAAUCCACAAUGAUUAGAAGAUACCAGAUAUAUAAAUAUCCCUUGGCAGCUUUGAAUGAGUGAUGUUCAUUUGUCAU [KL-SSTheo-A11] | 0.126 | 0.207 | 0.159 | 0.214 | 0.104
4 | AACCGCCAGUCGGCCGCCACUCACAGCAGUGAUGUUGCUGAAAAUCUAAAAGAGUGAUGUUCUUAGAGGACCGGGACUCCAGGCG [Same State Tryptophan B GF 5] | 0.26 | 0.0769 | 0.218 | 0.0567 | 0.145
5 | AACGCUGGUGAAUAACACUAGCGAAAAUUCCGAGGACCGGUACGGCCGCCACUCGGCUAACUGCGAGUGAUGUUCGAUAAUAAAA [Mat - Mod of OpenEnded 3 - D9] | 0.0803 | 0.183 | 0.109 | 0.189 | 0.0602
6 | AACGGCCAGUCGGCCGCCACUCGAUGCAGUGAUGUUGCUAACUUUCUAAAAGAGUGAUGUUCAUGGAGGACCGGGACUAAUGUAA [#29 K4 Tryptophan B Exclusion] | 0.349 | 0.298 | 0.346 | 0.382 | 0.228
7 | AACUCUCAGACACCUGAGUGAUGUUCAGGCCGAGGACCGGUACGGCCGCCACUCGGGUCUGAGAGAGGUUAUCAAAGAUAGCCAA [Omei KL Tryp A SS A v3] | 0.675 | 0.244 | 0.336 | 0.304 | 0.338
8 | AACUCUCAGACAUUUGAGUGAUGUUCAGGCCGAGGACCGGUACGGCCGCCACUCGGGUCUGAGAGAGGUUAUCAAAGAUAGCCAA [Omei KL Tryp A SS A v6] | 0.467 | 0.179 | 0.234 | 0.214 | 0.385
9 | AACUGUCAAGGACAACAUUACUGAGGUGAUACCAGCAUCGAAAGAUGCCCUUGGCAGCACUAACUUGCAGUGAUGUUGCAAGUAA [BrourdMod 2 - Jieux - Exclusion - Theophylline A] | 0.211 | 0.173 | 0.193 | 0.197 | 0.206
10 | AACUGUCAAGGCCGACAUUACUGAGGUGAUACCAGCAUCGAAAGAUGCCCUUGGCAGCACCAACUUGCAGUGAUGUUGCAAGUAA [BrourdMod 14 - Jieux - Exclusion - Theophylline A] | 0.191 | 0.158 | 0.17 | 0.198 | 0.184
11 | AAGAAGGUCAAAGACCUUCGUGCACCUGAUACCAGUCGCGAAAGCGACCCUUGGCAGCAGGGCAGUGAUGUUGCCAAGUGCACAA [Omei KL Theo A SS A v1] | 0.782 | 0.65 | 0.898 | 0.4 | 0.823
12 | AAGAAGGUCAAAGACCUUCGUGCUCGUGAUACCAGUCGCGAAAGCGGCCCUUGGCAGCACGGCAGUGAUGUUGCCAAGAGCACAA [#13 K4 Theophylline A Same State] | 0.318 | 0.0866 | 0.19 | 0.413 | 0.211
13 | AAGAGAUCGAGAAGGAGCGAGAAAGCUAGUACAUAUGUACUAGCAAAGCAGUGAUGUUGCACUCAGGUAGGUCGCUCGAUCUCAA [AK1 SS Arginine B] | 0.395 | 0.299 | 0.432 | 0.335 | 0.314
14 | AAGAGCUAGGCGGCCGCCACUAGUUGUGAACACAUACAAGCCAGUGAUGUUGGUAUGGUGGACGGUAGGACCGGGCCUAGCUGAA [Exclusion - Tryptophan B (Freestyle 16)] | 0.18 | 0.229 | 0.224 | 0.259 | 0.283
15 | AAGAGGUAGGCGGCCGCCACUAGUUGUGAACACAUACGAGCCAGUGAUGUUGGUAUUGUGGGCGGUAGGACCGGGCCUACCUGAA [Exclusion - Tryptophan B (Freestyle 19)] | 0.319 | 0.336 | 0.358 | 0.322 | 0.281
16 | AAGCAGUCACGCGAAGCCAUCGAAGAUGGCCGAGGACCGGUACGGCCGCCACUCGGAGUGAUGUUCCGAAGACUGCAAAAUAAAA | 0.37 | 0.386 | 0.417 | 0.468 | 0.252
17 | AAGCAGUCACUCAAAGCCAUCGAAGAUGGACGAGGACCGGUACGGCCGCCACUCGGAGUGAUGUUCCGAAGACUGCAAAAUAAAA | 0.408 | 0.295 | 0.304 | 0.511 | 0.23
18 | AAGCAGUCACUCAAAGCCAUCGAAGAUGGUCGAGGACCGGUACGGCCGCCACUCGGAGUGAUGUUCCGAAGACUGCAAAAUAAAA | 0.407 | 0.394 | 0.424 | 0.411 | 0.346
19 | AAGCAGUCACUCUAAGCCAUCGAAGAUGGACGAGGACCGGUACGGCCGCCACUCGGAGUGAUGUUCCGAAGACUGCAAAAUAAAA | 0.379 | 0.402 | 0.466 | 0.396 | 0.399
20 | AAGCAGUCUCUUGUAGUCAUCGAAGAUGAACGAGGACCGGUACGGCCGCCACUCGGAGUGAUGUUCCGAAGACUGCAAAAUAAAA [MatMod 17 - Jieux - Exclusion - Tryptophan A] | 0.581 | 0.422 | 1.01 | 0.765 | 0.18
21 | AAGCAUUGGUCUGAUACCAGUUGAUGACGAAUACGUCAACUGGAGUGAUGUUCCUAAAACAACCCUUGGCAGCAGACCGAUGCAA [MAT - Same State Theophlline B - Mod of Eli - D2] | 0.761 | 0.704 | 0.835 | 0.75 | 0.838
